Data reported in publication PMC2581579.

Molecular target: mutant ferritin light chain p.Phe167SerfsX26 (MT-FTL) homopolymer (human) (UniProt P02792)
Test: SEC

- stoichiometry N: 24
Substance: mutant ferritin light chain p.Phe167SerfsX26 (MT-FTL) homopolymer (from UniProt P02792 1-166) (natural protein)
